Data on six molecules can be found in patent US20200165354A1 (WUXI BIOLOGICS IRELAND, published 2020).

Assay [1] concerns the target human PCSK9 (construct not stated) (human) (UniProt Q8NBP7). Description: cell-based or functional assay.
In assay [2] the target is human PCSK9 with C-terminal 6-His tag, biotin-labelled (PCSK9-His-biotin) (human) (UniProt Q8NBP7). Description: ELISA binding to human PCSK9.
The target of assay [3] is human PCSK9 with C-terminal murine Fc, biotin-labelled (PCSK9-mFc-biotin) (human) (UniProt Q8NBP7). Description: blocking ELISA, binding of PCSK9 to LDL-R. A general note: In an ELISA, binding on a coated surface is turned into a signal by an enzyme label.
Assay [4] addresses T1, human PCSK9 (construct not stated) (human, UniProt Q8NBP7 31-692, limits assumed). As to the kind of experiment: cell-based or functional assay.
For assay [5], the target named is T2, rhesus PCSK9-His (Sino Biological) (rhesus monkey, UniProt A8T666 31-692, limits assumed).
T2 construct: also called rhesus monkey PCSK9; monkey PCSK9
T2 sequence (A8T666 31-692 limits assumed): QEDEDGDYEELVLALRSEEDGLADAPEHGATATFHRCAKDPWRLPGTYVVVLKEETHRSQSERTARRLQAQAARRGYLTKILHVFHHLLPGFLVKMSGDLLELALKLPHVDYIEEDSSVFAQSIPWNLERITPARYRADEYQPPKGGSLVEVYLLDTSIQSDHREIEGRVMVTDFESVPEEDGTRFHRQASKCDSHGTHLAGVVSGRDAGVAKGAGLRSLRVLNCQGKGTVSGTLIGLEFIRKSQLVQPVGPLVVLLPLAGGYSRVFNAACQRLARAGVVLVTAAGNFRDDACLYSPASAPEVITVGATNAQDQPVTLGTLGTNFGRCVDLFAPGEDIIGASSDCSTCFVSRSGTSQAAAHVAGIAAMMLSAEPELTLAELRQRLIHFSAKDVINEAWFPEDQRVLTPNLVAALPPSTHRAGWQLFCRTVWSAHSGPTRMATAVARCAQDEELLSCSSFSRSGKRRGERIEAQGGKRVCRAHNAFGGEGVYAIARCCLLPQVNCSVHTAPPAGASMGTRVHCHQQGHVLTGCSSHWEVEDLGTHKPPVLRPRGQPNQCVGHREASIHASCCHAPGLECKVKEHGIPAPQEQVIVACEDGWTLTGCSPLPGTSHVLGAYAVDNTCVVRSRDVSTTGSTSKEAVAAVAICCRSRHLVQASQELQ
As to the kind of experiment: ELISA, rhesus PCSK9-His captured on anti-His antibody. Here is the method:
ELISA plates (Nunc) were coated with anti-His antibody (Genscript) at 1 μg/ml overnight at 4° C. After blocking and washing, 1 μg/ml rhesus PCSK9-His (Sino Biological) was added and incubated for 1 h. The antibody samples were added to the plates and incubate at room temperature for 1 h. The plates were then washed and subsequently incubated with secondary antibody goat anti mouse-IgG-Fc-HRP (Bethyl) for 45 min. After washing, TMB substrate was added and the interaction was stopped by 2M HCl. The absorbance at 450 nm was read using a microplate reader (Molecular Device).
Binding to monkey PCSK9: the affinity of selected antibodies binding to rhesus monkey PCSK9 was measured by ELISA (see FIG. 4).

Assay [6] concerns the target T3, human PCSK9 with C-terminal 6-His tag, biotin-labelled (PCSK9-His-biotin) (human, UniProt Q8NBP7 31-692, biotin-labelled, site not stated).
T3 construct: Made in HEK293, purified on Ni column
As to the kind of experiment: ELISA, purified antibody on PCSK9-His-biotin captured on streptavidin. The method, then:
Binding assay by ELISA: Plates (Nunc) were coated with Streptavidin at 1 μg/ml overnight at 4° C. After blocking and washing, 250 ng/ml PCSK9-His-biotin was added and incubated for 1 h. Then hybridoma supernatants were transferred to the plates and incubate at room temperature for 1 h. The plates were then washed and subsequently incubated with secondary antibody goat anti mouse-IgG-Fc-HRP (Bethyl) for 1 h. After washing, TMB substrate was added and the interaction was stopped by 2M HCl. The absorbance at 450 nm was read using a microplate reader (Molecular Device).
(§1) Binding and blocking activities were confirmed using purified antibodies (FIGS. 1 and 2).

Assay [7] deals with T1, human PCSK9 (construct not stated). As to the kind of experiment: SPR Biacore T200, antibody captured by anti-Fc antibody, PCSK9 as analyte, 1:1 fit. Here is the method:
(§2) Antibody binding affinity to human and rhesus PCSK9 was detected by SPR assay using Biacore T200 (GE). Each antibody was captured on anti-murine IgG Fc antibody (GE) or anti-human IgG Fc antibody (Genway) immobilized CM5 sensor chip (GE). Human or rhesus PCSK9 at different concentrations were injected over the sensor chip at a flow rate of […] for an association phase of 180 s, followed by 1200 s dissociation. The chip was regenerated by 2 M MgCl₂ after each binding cycle.
(§3) The sensorgrams for blank surface and buffer channel are subtracted from the test sensorgrams. The experimental data was fitted by 1:1 model using Langmiur analysis. Molecular weight of 85 KDa was used to calculate the molar concentration of analyte.
Kinetic affinity by SPR: the affinities of selected clones binding to human PCSK9 were measured by SPR assay.

The target of assay [8] is T4, human PCSK9 with C-terminal murine Fc, biotin-labelled (PCSK9-mFc-biotin) (human, UniProt Q8NBP7 31-692, limits assumed, biotin-labelled, site not stated).
T4 construct: not shown: murine Fc (mFc) fused at the C-terminus
As to the kind of experiment: competition ELISA, antibody premixed with PCSK9-mFc-biotin, binding to coated LDL-R. The method, then:
Blocking assay by ELISA: Plates (Nunc) were coated with LDL-R overnight at 4° C. Hybridoma supernatants were mixed with 250 ng/ml PCSK9-mFc-biotin and incubated at 4° C. overnight. After blocking and washing, the mixture were added to the plates and incubated for 1 h. The plates were then washed and subsequently incubated with streptavidin-HRP. After washing, TMB substrate was added and the interaction was stopped by 2M HCl. The absorbance at 450 nm was read using a microplate reader (Molecular Device).
as §1

For assay [9], the target named is T1, human PCSK9 (construct not stated). Description: SPR Biacore, antibody captured, human PCSK9 as analyte. Here is the method: as §2, §3
For orientation: Surface plasmon resonance follows binding to a sensor surface in real time, without labels.

For assay [10], the target named is T5, rhesus (monkey) PCSK9, SPR analyte, construct not stated (rhesus monkey, UniProt A8T666 31-692, limits assumed).
T5 construct: also called rhesus PCSK9
T5 sequence (A8T666 31-692 limits assumed): as above
As to the kind of experiment: SPR Biacore, antibody captured, monkey PCSK9 as analyte. Here is the method:
as §2, §3

Assay [11] addresses T3, human PCSK9 with C-terminal 6-His tag, …. Description: ELISA binding to human PCSK9.
Assay [12] addresses T4, human PCSK9 with C-terminal murine Fc, …. As to the kind of experiment: blocking ELISA, binding of PCSK9 to LDL-R.
In assay [13] the target is T1, human PCSK9 (construct not stated). Description: ELISA, biotin-labelled PCSK9 on a streptavidin plate, antibody in human serum, 0 days at 37 C, goat anti-human-HRP, OD450. The method, then:
(§4) After incubation at 37° C., samples were rapidly frozen in dry-ice-ethanol bath and kept at −80° C. The samples were rapidly thawed before stability test. The plates were coated with streptavidin in Na₂CO₃/NaHCO₃ (pH 9.2) buffer at 4° C. overnight. The plates were washed with 0.1% Tween-PBS once before being blocked with 2% BSA/PBS. Biotin-labeled PCSK9 was added and incubated for 1 hr. After washing, then diluted serum samples were transferred to the plates and incubated for 1 hr at room temperature. Goat anti-human-HRP antibody were added to the wells and incubated for 1 hr. After washing, TMB substrate was added and the interaction was stopped by 2 M HCl. The absorbance at 450 nm was read using a microplate reader (Molecular Device).
(§5) The antibody binding to human PCSK9 was tested by ELISA after incubation in human serum at 37° C.

Assay [14] shares this target. As to the kind of experiment: ELISA, biotin-labelled PCSK9 on a streptavidin plate, antibody in human serum, 3 days at 37 C, goat anti-human-HRP, OD450. Here is the method:
as §4, §5

The target is the same in assay [15]. Description: SPR, human PCSK9.
In assay [16] the target is T5, rhesus (monkey) PCSK9, SPR analyte, …. As to the kind of experiment: SPR, monkey PCSK9. The method, then:
as §2, §3
The binding activity of engineered antibody was evaluated by SPR affinity test.

Repatha (evolocumab) (antibody): in [1], the IC50 (nM), LDL-uptake assay, HepG2 was 77.6 nM and the IC50 (nM), LDL-uptake assay, Huh-7 turned out to be 98.2 nM. Further, the EC50 in assay [2] worked out at 0.038 nM. In [3], this molecule had an IC50 of 2.1 nM.

B1: 2.6.6 (antibody, V domains shown)
VH: QVQLQQPGAEVVKPGASVTVSCKASGYTFTSYWIHWVMQRPGQGLEWIGELNPSDGRTNYNEKFKNKATLTVDTSSSTVYMQLSSLTSEDSAVYYCARSNFYGSSSFANWGQGTLVTVSA
VL: EILLTQSPAIIAASPGEKVTITCSASSSVSYMNWYQQKPGSSPILWIYGISNLASGVPARFSGSGSGTSFSFTINNMEAEDVATYYCQQRSSYPPTFGGGTKLEIK
notes: Mouse monoclonal antibody purified from hybridoma supernatant; also called 2.6.6 (mouse antibody)
Turning to B1, the “IC50 (nM), LDL-uptake assay in HepG2 cells” value in assay [4] worked out at 130 nM. Further, the Kd in assay [5] stood at 0.6 nM. For the same molecule, the EC50 in assay [6] was 0.14 nM. Moreover, in assay [7], the equilibrium dissociation constant (Kd) was determined as 1.08 nM, the koff came out at 0.000148 s⁻¹ and the kon came out at 137000 M⁻¹ s⁻¹. For the same molecule, in assay [8], the IC50 amounted to 8.5 nM.

B2: 2.6.6-z4-uIgG1k (antibody, V domains shown)
VH: QVQLVQSGAEVKKPGASVKVSCKASGYTFTSYWIHWVRQAPGQGLEWMGELNPSDGRTNYNEKFKNKATMTVDTSTSTVYMELSSLRSEDTAVYYCARSNFYGSSSFANWGQGTLVTVSS
VL: DIQMTQSPSSLSASVGDRVTITCSASSSVSYMNWYQQKPGKAPKLLIYGISNLASGVPSRFSGSGSGTDFTFTISSLQPEDIATYYCQQRSSYPPTFGGGTKVEIK
notes: Humanized antibody of 2.6.6 with a human constant region of IgG1 isotype, kappa light chain
As to B2, in assay [9], binding was characterised by a dissociation constant (Kd) of 2.11 nM, the koff stood at 4.69e-05 s⁻¹ and the kon came to 22200 M⁻¹ s⁻¹. Further, in assay [10], binding was characterised by a dissociation constant (Kd) of 0.19 nM, the off-rate (koff) turned out to be 3.78e-06 s⁻¹ and the kon is 19900 M⁻¹ s⁻¹.

B3: 2.12.12.4 (antibody, V domains shown)
VH: EVQLQQSGPELVKPGASVKMSCEASGYTFTNYVMHWVKQKPGQGLEWIGYINPYNDYIKYNEKFKGKATLTSDKSSSTTYLEVSSLTSEDSAVYYCGRQRYYGYRPYYAMDYWGQGTSVTVSS
VL: NIVLTQSPASLAVSLGQRATISCRASESVDGYGNVFMHWYQQKPGQPPKLLIYLASNLESGVPDRFSGSGSRTDFTLTIDPVEADDAATYYCQQNNKDPWTFGGGTKLEIK
notes: Mouse monoclonal antibody purified from hybridoma supernatant; also called parental murine antibody
Consider B3, for which the “IC50 (nM), LDL-uptake assay in HepG2 cells” value in assay [4] was 72.5 nM. The molecule also displayed a Kd in assay [5] of 0.5 nM. Also, the concentration giving a half-maximal response (EC50) in [6] was 0.14 nM. In assay [7], this molecule registered an equilibrium dissociation constant (Kd) of 0.0531 nM, a koff of 5.43e-05 s⁻¹ and an on-rate (kon) of 1.02e+06 M⁻¹ s⁻¹. The concentration for half-maximal inhibition (IC50) in assay [8] is 3 nM.

B4: 2.12.12.4-z4-uIgG4k (antibody, V domains shown)
VH: QVQLVQSGAEVKKPGSSVKVSCEASGYTFTNYVMHWVRQAPGQGLEWMGYINPYNDYIKYNEKFKGKATITADKSTSTAYMELSSLRSEDTAVYYCGRQRYYGYRPYYAMDYWGQGTLVTVSS
VL: DIVLTQSPASLAVSPGQRATITCRASESVDGYGNVFMHWYQQKPGQPPKLLIYLASNLESGVPARFSGSGSGTDFTLTINPVEANDTANYYCQQNNKDPWTFGGGTKVEIK
notes: the chains here are derived by undoing them; Human constant region of IgG4 isotype, kappa light chain
The molecule B4 yielded an EC50 in [11] of 0.026 nM. This molecule also registered an IC50 in [12] of 1.9 nM. In [9], the Kd worked out at 0.0271 nM, the koff amounted to 2.67e-05 s⁻¹ and the kon turned out to be 984000 M⁻¹ s⁻¹. In assay [10], this molecule yielded a Kd of 0.379 nM, an off-rate constant (koff) of 0.000303 s⁻¹ and a kon of 800000 M⁻¹ s⁻¹. The 50% effective concentration (EC50 (read off the curve)) in assay [13] was ~0.06 nM. Besides, the “EC50 (read off the curve)” value in assay [14] was ~0.07 nM.

B5: 2.12.12.4-v2-z4-uIgG4k (antibody, V domains shown)
VH: QVQLVQSGAEVKKPGSSVKVSCEASGYTFTNYVMHWVRQAPGQGLEWMGYINPYNDYIKYNEKFKGKATITADKSTSTAYMELSSLRSEDTAVYYCGRQRYYGYRPYYAMDYWGQGTLVTVSS
VL: DIVLTQSPASLAVSPGQRATITCRASESVEGYGNVFMHWYQQKPGQPPKLLIYLASNLESGVPARFSGSGSGTDFTLTINPVEADDTANYYCQQNNKDPWTFGGGTKVEIK
notes: Engineered humanized antibody with a human constant region of IgG4 isotype, kappa light chain; also called engineered antibody lead
In assay [15], B5 had a Kd of 0.0423 nM, a koff of 4.32e-05 s⁻¹ and a kon of 1.02e+06 M⁻¹ s⁻¹. In assay [16], this molecule came in with a Kd of 0.522 nM, an off-rate constant (koff) of 0.000291 s⁻¹ and a kon of 558000 M⁻¹ s⁻¹.

One may read the EC50 as the concentration needed to bring the measured effect to its halfway point. As usually defined, the IC50 is the concentration that inhibits the measured activity by half. By Kd is commonly meant a measure of binding affinity in units of concentration. Usually koff stands for the first-order rate constant of dissociation. For orientation: kon means the rate constant with which the complex forms. What is called EC50 (read off the curve) is the concentration needed to bring the measured effect to its halfway point.
